In patent US20140051106:
Where a chain is given by its changes, count along the chain named. Names may count otherwise.

Key:
[1] = target: RPS23 peptide (peptide fragment of the RPS23 protein)
RPS23 20mer V07A = target: T1, RPS23 20mer V07A
T1 chain: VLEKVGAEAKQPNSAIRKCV

RPS23 20mer I16A = target: T2, RPS23 20mer I16A
T2 chain: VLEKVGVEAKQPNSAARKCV

RPS23 20mer K04A = target: T3, RPS23 20mer K04A
T3 chain: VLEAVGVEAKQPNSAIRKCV

RPS23 20mer C19A = target: T4, RPS23 20mer C19A
T4 chain: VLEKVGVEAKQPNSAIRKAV

RPS23 20mer G06A = target: T5, RPS23 20mer G06A
T5 chain: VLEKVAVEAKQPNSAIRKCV

[2] = target: T6, HIF-1α C-terminal transcriptional activation domain (CTAD) peptide, Q16665
T6 chain: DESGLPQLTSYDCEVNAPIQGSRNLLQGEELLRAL

S. Pombe RPS23 peptide = target: T7, S. Pombe RPS23 peptide
T7 chain: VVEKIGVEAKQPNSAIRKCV

[3] = target: T8, S. Cerevisiae RPS23 peptide
T8 chain: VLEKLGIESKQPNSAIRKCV

RPS23 20mer K10A = target: T9, RPS23 20mer K10A
T9 chain: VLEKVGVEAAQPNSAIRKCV

[4] = target: T10, HIF-1α C-terminal oxygen dependent degradation domain (CODD) peptide, Q16665
T10 chain: DLDLEMLAPYIPMDDDFQL

RPS23 20mer V05A = target: T11, RPS23 20mer V05A
T11 chain: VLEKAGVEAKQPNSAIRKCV

[5] = target: histone fragment peptides
[6] = target: T12, HIF-1α N-terminal oxygen dependent degradation domain (NODD) peptide, Q16665
T12 chain: DALTLLAPAAGDTIISLDF

RPS23 20mer E08A = target: T13, RPS23 20mer E08A
T13 chain: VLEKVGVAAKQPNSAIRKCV

RPS23 20mer P12I = target: T14, RPS23 20mer P12I
T14 chain: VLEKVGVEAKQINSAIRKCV

RPS23 20mer P12A = target: T15, RPS23 20mer P12A
T15 chain: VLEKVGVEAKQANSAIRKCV

RPS23 20mer Q11A = target: T16, RPS23 20mer Q11A
T16 chain: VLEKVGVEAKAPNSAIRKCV

RPS23 20mer K18A = target: T17, RPS23 20mer K18A
T17 chain: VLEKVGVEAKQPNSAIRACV

RPS23 20mer S14A = target: T18, RPS23 20mer S14A
T18 chain: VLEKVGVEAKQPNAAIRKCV

RPS23 16mer = target: T19, RPS23 16mer
T19 chain: EKVGVEAKQPNSAIRK

RPS23 20mer N13A = target: T20, RPS23 20mer N13A
T20 chain: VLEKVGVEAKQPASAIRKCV

B1: H155A mutant of full-length human OGFOD1 (protein)
chain: MGSSHHHHHHSSGLVPRGSHMASMNGKRPAEPGPARVGKKGKKEVMAEFSDAVTEETLKKQVAEAWSRRTPFSHEVIVMDMDPFLHCVIPNFIQSQDFLEGLQKELMNLDFHEKYNDLYKFQQSDDLKKRREPHISTLRKILFEDFRSWLSDISKIDLESTIDMSCAKYEFTDALLCADDELEGRRIAFILYLVPPWDRSMGGTLDLYSIDEHFQPKQIVKSLIPSWNKLVFFEVSPVSFHQVSEVLSEEKSRLSISGWFHGPSLTRPPNYFEPPIPRSPHIPQDHEILYDWINPTYLDMDYQVQIQEEFEESSEILLKEFLKPEKFTKVCEALEHGHVEWSSRGPPNKRFYEKAEESKLPEILKECMKLFRSEALFLLLSNFTGLKLHFLAPSEEDEMNDKKEAETTDITEEGTSHSPPEPENNQMAISNNSQQSNEQTDPEPEENETKKESSVPMCQGELRHWKTGHYTLIHDHSKAEFALDLILYCGCEGWEPEYGGFTSYIAKGEDEELLTVNPESNSLALVYRDRETLKFVKHINHRSLEQKKTFPNRTGFWDFSFIYYE
MALDI mass spectrometry, +16 mass shift [1]: no such change was detectable with the H155A or D157A variants under standard assay conditions

B2: D157A mutant of full-length human OGFOD1 (protein)
chain: B1 chain with D180A
MALDI mass spectrometry, +16 mass shift [1]: no such change was detectable with the H155A or D157A variants under standard assay conditions

B3: recombinant full-length human OGFOD1 (protein)
chain: MNGKRPAEPGPARVGKKGKKEVMAEFSDAVTEETLKKQVAEAWSRRTPFSHEVIVMDMDPFLHCVIPNFIQSQDFLEGLQKELMNLDFHEKYNDLYKFQQSDDLKKRREPHISTLRKILFEDFRSWLSDISKIDLESTIDMSCAKYEFTDALLCHDDELEGRRIAFILYLVPPWDRSMGGTLDLYSIDEHFQPKQIVKSLIPSWNKLVFFEVSPVSFHQVSEVLSEEKSRLSISGWFHGPSLTRPPNYFEPPIPRSPHIPQDHEILYDWINPTYLDMDYQVQIQEEFEESSEILLKEFLKPEKFTKVCEALEHGHVEWSSRGPPNKRFYEKAEESKLPEILKECMKLFRSEALFLLLSNFTGLKLHFLAPSEEDEMNDKKEAETTDITEEGTSHSPPEPENNQMAISNNSQQSNEQTDPEPEENETKKESSVPMCQGELRHWKTGHYTLIHDHSKAEFALDLILYCGCEGWEPEYGGFTSYIAKGEDEELLTVNPESNSLALVYRDRETLKFVKHINHRSLEQKKTFPNRTGFWDFSFIYYE
Hydroxylation (RPS23 20mer V07A): ++ | Hydroxylation (E. Coli S12 peptide): - | Hydroxylation (RPS23 20mer I16A): ++ | Hydroxylation (RPS23 20mer K04A): ++ | Hydroxylation (RPS23 20mer C19A): ++ | Hydroxylation (RPS23 20mer G06A): ++ | 2OG turnover assay [1]: Activity is also stimulated significantly in the presence of a peptide fragment of the RPS23 protein. | MALDI mass spectrometry, +16 mass shift [1]: a clear +16 mass shift was observed upon incubation of RPS23 peptide with wild-type OGFOD1 | MALDI-TOF, +16 Da mass shift characteristic of hydroxylation [2]: None of these potential substrates displayed evidence of a +16 Da mass shift characteristic of hydroxylation. | Hydroxylation (S. Pombe RPS23 peptide): ++ | Hydroxylation [3]: ++ | Hydroxylation (RPS23 20mer K10A): ++ | Hydroxylation (MALDI assay) [4]: No hydroxylation of the PHD2 C-terminal oxygen-dependent degradation domain (CODD) substrate by OGFOD1 was observed under the same assay conditions. | MALDI-TOF, +16 Da mass shift characteristic of hydroxylation [4]: None of these potential substrates displayed evidence of a +16 Da mass shift characteristic of hydroxylation. | Hydroxylation (RPS23 20mer V05A): ++ | MALDI-TOF, demethylation [5]: Neither did we find that OGFOD1 catalyzed N^ε-methyl-lysine or arginyl demethylation of histone fragment peptides | MALDI-TOF, +16 Da mass shift characteristic of hydroxylation [6]: None of these potential substrates displayed evidence of a +16 Da mass shift characteristic of hydroxylation. | Hydroxylation (RPS23 20mer E08A): ++ | Hydroxylation (RPS23 20mer P12I): - | Hydroxylation (RPS23 20mer P12A): - | Hydroxylation (RPS23 20mer Q11A): ++ | Hydroxylation (RPS23 20mer K18A): ++ | Hydroxylation (RPS23 20mer S14A): + | Hydroxylation (RPS23 16mer): + | Hydroxylation (RPS23 20mer N13A): + | Hydroxylation (RPS23 20mer): ++ | amino acid analysis of the enzymatic product (RPS23 20mer): The results clearly demonstrate the presence of trans-3-hydroxyproline in the enzymatic product
